experiment: soluble on expression in E. coli; label from the status in PepcDB or PDB records

Sequence | soluble on expression in E. coli
EPEEVIPSRLDIRVGKIITVEKHPDADSLYVEKIDVGEAEPRTVVSGLVQFVPKEELQDRLVVVLCNLKPQKMRGVESQGMLLCASIEGINRQVEPLDPPAGSAPGEHVFVKGYEKGQPDEELKPKKKVFEKLQADFKISEECIAQWKQTNFMTKLGSISCKSLKGGNISLE | soluble
SVIRELNKNWQSHAFDGFEVNWTEQQQMVSCLYTLGYPPAQAQGLHVTSISWNSTGSVVACAYGRLDHGDWSTLKSFVCAWNLDRRDLRPQQPSAVVEVPSAVLCLAFHPTQPSHVAGGLYSGEVLVWDLSRLEDPLLWRTGLTDDTHTDPVSQVVWLPEPGHSHRFQVLSVATDGKVLLWQGIGVGQLQLTEGFALVMQQLPRSTKLKKHPRGETEVGATAVAFSSFDPRLFILGTEGGFPLKCSLAAGEAALTRMPSSVPLRAPAQFTFSPHGGPIYSVSCSPFHRNLFLSAGTDGHVHLYSMLQAPPLTSLQLSLKYLFAVRWSPVRPLVFAAASGKGDVQLFDLQKSSQKPTVLIKQTQDESPVYCLEFNSQQTQLLAAGDAQGTVKVWQLSTEFTEQGPREAEDLDCLAAEVAA | soluble
LGTERQREHPFIVTEPGEVARGKKNGLDYLFHLYEQCREFLLQVQTIAKDRGEKCPTKVTNQVFRYAKKSGASYINKPKMRHYVHCYALHCLDEEASNALRRAFKERGENVGSWRQACYKPLVNIACRHGWDIDAVFNAHPRLSIWYVPTKLRQLCHLERNNAVAAAAALVGGISCTGSSTSGRGGCGGDDLRF | soluble
MAHHHHHHSLSLKGFVKVERRMADRTIKMLQSRGYFDSDYEIRHEGDYVLIPVKDGFTGPVVVKDAEKKPKVIPASGSFDIIGTIAITKKDDVEFAKEILKTHKNIKSVYLDKGVKGKERIRDLVLLAGIDSTVALYRENGCIFKIDVSKSYFSPRLATERRRLVDSILDGEFIVDMFAGSGPISIEVAKKRRVKIISIDINCAAIESLQESMRLNSLLGTITPICGDARQLIKDIHDADRIIMNHPTDAFSFLPCALEALKYGGHINYYEILNKDDVTKRLADFNFMRLKVFSYHRVHSYSKLSDLISFDLIREGEG | soluble
MTVETFHPKQTTTLETPAKTLEAASADSVNTGNVATGNRIGFVSLGCPKNLVDSERILTQLRIDGYEVTNSYDNADLVIVNTCGFIDAAVEESLDAVREALEENGKVIVTGCLGAKENQIREVHPDVLEITGPHSYEAVLKHVHKYVPKPEHNPFTSLIPQTGVKLTPKHYAYLKISEGCDNRCTFCIIPALRGDLDSRGAGSVLDEAKRLVEAGVQEILVVSQDTSAYGKDKGGRTDFWNGMPVKQDITSLARQLGKMGAWVRLHYIYPYPWVDDLIPLMAEGLILPYLDIPMQHASPRILKMMKRPGRVDRQLEAIQRWREICPDLVIRSTFIVGFPGETEEDFEMLLDFLREARLDRVGCFKYSEVEGAVANTIAELISEEVKEDRYHRFMEVQAEISAERLARFVGRTMDILIDDVDEEGAIGRSFADAPEIDGMVFINGETELEPGMLVRAVITHSDEHDLWAELVDADAEDEVEALEHHHHHH | soluble
MGSDKIHHHHHHMRRTYLTLSEEDKDYLKTLSKKRTIQAQIVDRAKILLYKSDGMTFNAIAEKLAISSATVRLCVSKYYEGGIEKALFDTQRPGRPSEITDDAKAWIINLACQRPVELGYAQELWTLNALHKHIQKHAEEAGYPRLTTITKPYIQKFLKEQDIKPFKIRYYCEKRDQDFESKMHEVLLVYKQIEMQFDENGTLIVPDDYKLTITVSYDEKPGIQAISNTAPDLRPTTENGEVYRDAEYKRLGTLSLLAGIDLLTGEAIPLVSETHKSSDFIEFLKIRDKKYPLQDTIRIILDNHSAHTSKETQRFLDTMPKGRFKFVFTPKHGSWLNMIESFFSKMTKQMLRGIRVKTKQELEERIYQYFEEVNREPVVYHWKYKMDEIEKKKCCTELWMPFSAH | not soluble
MGSDKIHHHHHHMNGALDVLAPAEVIVAATAPADNEASDMPPVEIVLDSPPVSAEMVFDEDADLLDRLATDDEAAFRMLVERHIDRAYSIALRILGNSADAEDVVQDTMLKVWTHRGRWQHGRAKFSTWLYRVVSNRCIDLRRKPRTENVEAVPEVADTQPDAVRVIERNELSNLLEAAMQRLPEQQRIAVILSYHENMSNAEIAEVMDTTIAAVESLLKRGRQQLRARLSGDESELRAAFTDF | not soluble
